How the values were obtained:
HisSUMO-Mer2 (wild type) = assay: Co-expression pull-down assay (NiNTA, anti-MBP immunoblot); type: binding, Saccharomyces cerevisiae; details: co-expressed in E. coli
Method: Wild-type and mutant MBP-tagged Mre11-C49 and HisSUMO-tagged Mer2 were co-expressed in 50 mL of E. coli BL21 cultures and purified by affinity chromatography on Ni-NTA resin following a procedure similar to that described above. Briefly, cells were lysed by sonication and centrifuged at maximum speed for 30 mins at 4 °C on a table-top centrifuge. A small fraction of the supernatant was collected as ‘Input’ and the remainder was incubated with 120 µL Ni-NTA resin, pre-equilibrated with wash buffer (25 mM HEPES pH 7.5, 20 mM imidazole, 0.1 mM DTT, 0.1 mM PMSF, 10% glycerol), for 1 hour on a rotating wheel at 4 °C. The resin was washed twice with 2 ml in batch and five times with 2 ml on column before eluting with 250 µL of 500 mM imidazole in wash buffer. Input and elution fractions were separated by SDS-PAGE followed by immunoblotting with primary murine anti-MBP monoclonal antibody at 1:10,000 dilution (E8032S, NEB) and secondary goat anti-mouse IgG-HRP conjugated at 1:10,000 dilution (AP308P, Chemicon).

Mer2 = assay: Yeast two-hybrid; type: binding, Saccharomyces cerevisiae; details: SC-Leu-Ura-His + 25 mM 3-AT
Method: Bait and prey plasmids were co-transformed into yWL365 using the standard ‘LiAc’-based transformation and plated on SC-Leu-Ura selective media. At least four independent transformants were tested for Mer2-Mre11 interaction by spotting a dilution series on SC-Leu- Ura-His + 25 mM 3-AT (3-amino-1,2,4-triazole) and growing for 4-5 days at 30 °C.

B1: Mre11-LLK: Mre11 (or its C49 fragment) with LLK residues mutated to alanine (protein, UniProt P32829 1-692, looked up, variant L683A L686A K690A)
Double-strand break repair …: MDYPDPDTIRILITTDNHVGYNENDPITGDDSWKTFHEVMMLAKNNNVDMVVQSGDLFHVNKPSKKSLYQVLKTLRLCCMGDKPCELELLSDPSQVFHYDEFTNVNYEDPNFNISIPVFGISGNHDDASGDSLLCPMDILHATGLINHFGKVIESDKIKVVPLLFQKGSTKLALYGLAAVRDERLFRTFKDGGVTFEVPTMREGEWFNLMCVHQNHTGHTNTAFLPEQFLPDFLDMVIWGHEHECIPNLVHNPIKNFDVLQPGSSVATSLCEAEAQPKYVFILDIKYGEAPKMTPIPLETIRTFKMKSISLQDVPHLRPHDKDATSKYLIEQVEEMIRDANEETKQKLADDGEGDMVAELPKPLIRLRVDYSAPSNTQSPIDYQVENPRRFSNRFVGRVANGNNVVQFYKKRSPVTRSKKSGINGTSISDRDVEKLFSESGGELEVQTLVNDLLNKMQLSLLPEVGLNEAVKKFVDKDEKTALKEFISHEISNEVGILSTNEEFLRTDDAEEMKALIKQVKRANSVRPTPPKENDETNFAFNGNGLDSFRSSNREVRTGSPDITQSHVDNESRITHISQAESSKPTSKPKRVRTATKKKIPAFSDSTVISDAENELGDNNDAQDDVDIDENDIIMVSTDEEDASYGLLNGRKTKTKTRPAASTKTASRRGKGRASRTPKTDIAGSALAKARK
Interaction with Mer2 in pulldown (in words) (HisSUMO-Mer2 (wild type)): strongly decreased the interaction
Yeast two-hybrid interaction with Mer2 (in words) (Mer2): abolished the interaction
